Assay results from patent publication US20170052184A1 (published 2017).

T1: HCV bt-134-154 (Peptide 1, HCVc 134-154) (Hepatitis C virus (numbering per HCV-1), biotin (carboxy-terminal per; N-terminal per))
T1 peptide: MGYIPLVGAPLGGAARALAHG

T2: HCV bt-141-161 (Peptide 2, HCVc 141-161) (Hepatitis C virus (numbering per HCV-1), biotin (carboxy-terminal per; N-terminal per))
T2 peptide: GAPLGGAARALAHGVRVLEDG

T3: HCV bt-151-171 (Peptide 3, HCVc 151-171) (Hepatitis C virus (numbering per HCV-1), biotin (carboxy-terminal per; N-terminal per))
T3 peptide: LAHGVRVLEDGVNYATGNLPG


What was measured:
Test in all cases: EIA, captured mAb + biotin peptide
[1] = biological target: T1, HCV bt-134-154 (Peptide 1, HCVc 134-154)
[2] = biological target: T2, HCV bt-141-161 (Peptide 2, HCVc 141-161)
[3] = biological target: T3, HCV bt-151-171 (Peptide 3, HCVc 151-171)

| Binder | Reactivity (OD 492 nm) [1] [OD units] | Reactivity (OD 492 nm) [2] [OD units] | Reactivity (OD 492 nm) [3] [OD units] |
| --- | --- | --- | --- |
| HCV 208B-471 (antibody, V domains shown) VH: QGQLQQSGPVLVKPGASEILYCKTSGFTFSSTYISWLKQKPGQSLEWIAWIYAGTGATNYNQKFTGKAQLTVDASSNTAYMHFSGLTPEDSAIYYCAISGAGVYWGQGTLVTVSA VL: DVVMTQTPLSLPVSLGDQASISCRSSQSLLHSNGNTYLEWYLQKPGQSPNLLIYNVSNRFSGVPDRFSGSGSGTDFALKISRVGAEDLGVYYCFQGSHVPLTFGAGTKLELKR | 1.62 | 0.11 | 0.08 |
| HCV 208B-395 (antibody, V domains shown) VH: QVQLQQSGAGLAKPGASVKMSCKASGYTFTANKMHWTKQRPGQGLEWIGYIDPSSGYTQYNHKIQDKATLTADTSSSTAYMQLSSLTFEDSAVYYCTNFAYWGQGTLVTVSA VL: DIVLTQSPATLSVTPGDRVSLSCRASQRIYNYLHWYQQKSHESPRLLIKYASQSISGIPSRFSGSGSGTDFILTINSVETEDFGMYFCQQSNSWPLTFGAGTKLELRR | 0.54 | 0.13 | 3.69 |
| HCV 208B-547 (antibody, V domains shown) VH: QVQLQQSGAELAKPGASVKMSCKASGYTFTSNKMHWAKQRPGQGLEWIGYIDPSSGYTEYNQKIKDKATLTADKSSSTAYMQLSSLTSEDSAVYYCTNFAYWGQGTLVTVSA VL: EVVLTQSPAITAASLGQKVTITCRASSSVSYMHWYRQKSGTSPQPWIYEISTLASGVPTRFRASGSGTSYSLTISSMEAEDAAIYYCQQWNYPLTFGAGTKLELKR | 0.12 | 0.08 | 2.9 |
| HCV 208B-327 (antibody, V domains shown) VH: EVQLVESGGGLVKPGGSLKLSCAASGFTFSDSYMYWVRQTPDQRLEWVATISDGGSYTFYPDSVKGRFTISRDNAQNNLYLQMSSLKSEDTAMYYCASPHAGYFGWFAYWGRGTLVTVSA VL: DIVMTQAAFSNPVTPGTSVSISCRSSKSLLHSNGITYLYWYLQKPGQSPQLLIYQMSKIASGVPDRFRSSGSGTDFTLRISRVEAADVGVYYCAQNLELPWTFGGGTKLEIKR | 0.07 | 0.05 | 0.49 |
| HCV 208B-517 (antibody, V domains shown) VH: QVQLKQSGPGLVQPSQSLSITCTVSGFSLITHGVHWVRQSPGKGLEWLGVIWSGGSTDYNAAFISRLSISKDTSKSQVFLKMSSLQADDTAIYYCARNGGATAFDYWGQGTTLTVSS VL: DIVMTQSPATLSVTPGDRVSLSCRASQSISDYLHWYQQKSHESPRLLIKYASQSISGIPSRFRGSGSGSHFTLSINSVEPEDVGVYYCQNGHSFPWTFGGGTKLEIKR | 0.1 | 0.41 | 0.7 |
| HCV 208B-353 (antibody, V domains shown) VH: EVQLVESGGDLVKPGGSLKLSCAASGFTFNHYGMSWVRQPPDKRLEWVATISSGGGYTYYPDSVKGRFTISRDNAKDTLSLQMSSLRSGDTAVYYCASLYGSLFAYWGQGTLVTVSA VL: DIVMTQSQKFMSTTVGDRVRVTCKASQNVGTAVAWYQQKPGQSPKLLIYSASNRYTGVPDRFTGSGSGTDFTLTITNMQSEDLADYFCQQYSTYPLTFGSGAKLEIKR | 0.07 | 2.47 | 0.07 |
| HCV 208B-515 (antibody, V domains shown) VH: QVQLQQPGAELVKPGASLKLSCRASGYTFTSYWIHWVKQRPGQGLEWIGEIDPSDSYTNYNQKFKGKATLTVDKSSRAAYMQLSSLTSEDSAVYYCARHYYGVFDSWGQGTKLTVSS VL: QIVFTQYPAIMSASLGERVTMTCTASSSVTSSYLHWFQQKPGSSPKLWIYSTSNPGSGVPARFSGRGSGTSYSLSISSMEAEDAATYYCLQFHRSPWTFGGGTKLEIRR | 0.51 | 0.13 | 0.06 |
